Source: article PMC8962251 (Biomedicines, 2022)
Where no end group is shown, it is not given here.

Biological target: T1, SARS CoV-2 S1S2 trimer (SARS-CoV-2, UniProt P0DTC2 14-1213)
T1 construct: also called trimeric S1S2; "wt" spike trimer
Experiment: SPR
Settings: both partners purified

B1: CVRBDL-3 (peptide)
peptide: HDFWWEYDKKNDTWTRRRR-NH2
notes: also called CVRDBL-3; CVRBD-3; source: synthetic peptide; bought: CASLO
stoichiometry N: 1
